In assay [1] the target is T1, human LAMA4 LG4-5 fragment displayed on 293 cells (pDisplay) (human, UniProt Q16363 1453-1821, limits assumed).
T1 sequence: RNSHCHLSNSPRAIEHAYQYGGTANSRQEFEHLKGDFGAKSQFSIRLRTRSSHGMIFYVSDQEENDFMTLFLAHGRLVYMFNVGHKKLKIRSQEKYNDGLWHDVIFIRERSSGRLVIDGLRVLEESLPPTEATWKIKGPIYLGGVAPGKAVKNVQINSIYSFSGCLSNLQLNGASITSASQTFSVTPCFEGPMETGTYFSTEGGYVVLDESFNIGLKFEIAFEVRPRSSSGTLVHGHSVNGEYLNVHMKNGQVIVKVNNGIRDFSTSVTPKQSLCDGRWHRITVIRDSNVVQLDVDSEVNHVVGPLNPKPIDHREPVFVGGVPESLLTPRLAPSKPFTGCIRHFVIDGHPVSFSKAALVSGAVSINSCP
Put plainly: flow cytometry, serial dilution on 293 cells displaying LG4-5. The method, then: Chimeric 15F7, H1L1, H1L2, H2L1, H2L2, and buffer alone were tested for their ability to bind to LAMA4-fragment-displaying cells. To test LAMA4 binding capacity, serially diluted antibodies were pre-incubated with human 293 cells displaying LG4-5, followed by anti-human-650 secondary antibody incubation as described in the Materials and Methods. Fluorescent signal was assessed via flow cytometric analyses and plotted as mean fluorescence intensity (MFI) as shown in FIG. 8.
(§1) Human LAMA4 G-domains 1-5 and variants were cloned into pDisplay expression construct (Life Technologies) and transiently transfected into 293 cells using standard procedures. Anti-LAMA4 antibodies were incubated with cells for 30 min at 4° C. and followed by anti-mouse-650 for 30 minutes at 4° C. Cells were analyzed for anti-laminin binding by flow cytometry using standard procedures.

Assay [2] deals with T2, human LAMA4 LG1-3 fragment displayed on 293 cells (pDisplay) (human, UniProt Q16363 830-1430, limits assumed).
T2 sequence: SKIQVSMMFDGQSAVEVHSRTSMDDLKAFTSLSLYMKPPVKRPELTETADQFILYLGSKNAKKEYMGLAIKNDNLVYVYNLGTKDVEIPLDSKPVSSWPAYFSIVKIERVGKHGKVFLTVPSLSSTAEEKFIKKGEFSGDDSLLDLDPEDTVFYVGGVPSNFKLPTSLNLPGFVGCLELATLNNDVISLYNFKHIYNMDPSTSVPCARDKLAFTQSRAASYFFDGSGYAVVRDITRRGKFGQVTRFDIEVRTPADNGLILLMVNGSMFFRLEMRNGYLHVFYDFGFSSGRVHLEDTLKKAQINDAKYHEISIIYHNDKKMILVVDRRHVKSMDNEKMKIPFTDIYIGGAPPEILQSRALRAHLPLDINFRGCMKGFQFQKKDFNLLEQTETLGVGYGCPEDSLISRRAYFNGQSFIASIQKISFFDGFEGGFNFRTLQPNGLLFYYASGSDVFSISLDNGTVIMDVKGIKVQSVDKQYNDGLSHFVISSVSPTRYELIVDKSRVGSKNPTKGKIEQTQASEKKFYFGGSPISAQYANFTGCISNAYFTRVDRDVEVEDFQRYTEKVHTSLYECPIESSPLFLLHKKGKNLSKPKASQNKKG
As to the kind of experiment: flow cytometry on 293 cells displaying LAMA4 fragments. The method, then: (§2) The specific binding of the chimeric 15F7, […] H1L2, H2L1, and H2L2 antibodies to the LG4-5 modules of the G domain of LAMA4 was tested by assessing the antibodies' ability to stain LAMA4-fragment-displaying 293 cells by flow cytometry, as shown in FIG. 9. Each of the antibodies was able to specifically bind 293 cells displaying LG1-5 and LG4-5, but not LG1-3.
as §1

For assay [3], the target named is T3, human LAMA4 G domain LG1-5 displayed on 293 cells (pDisplay) (human, UniProt Q16363 830-1821, limits assumed).
T3 construct: The pDisplay vector parts (leader, tags, PDGFR transmembrane anchor) are not described; also called LAMA4-displaying 293 cells; Human LAMA4 G-domains 1-5
T3 sequence: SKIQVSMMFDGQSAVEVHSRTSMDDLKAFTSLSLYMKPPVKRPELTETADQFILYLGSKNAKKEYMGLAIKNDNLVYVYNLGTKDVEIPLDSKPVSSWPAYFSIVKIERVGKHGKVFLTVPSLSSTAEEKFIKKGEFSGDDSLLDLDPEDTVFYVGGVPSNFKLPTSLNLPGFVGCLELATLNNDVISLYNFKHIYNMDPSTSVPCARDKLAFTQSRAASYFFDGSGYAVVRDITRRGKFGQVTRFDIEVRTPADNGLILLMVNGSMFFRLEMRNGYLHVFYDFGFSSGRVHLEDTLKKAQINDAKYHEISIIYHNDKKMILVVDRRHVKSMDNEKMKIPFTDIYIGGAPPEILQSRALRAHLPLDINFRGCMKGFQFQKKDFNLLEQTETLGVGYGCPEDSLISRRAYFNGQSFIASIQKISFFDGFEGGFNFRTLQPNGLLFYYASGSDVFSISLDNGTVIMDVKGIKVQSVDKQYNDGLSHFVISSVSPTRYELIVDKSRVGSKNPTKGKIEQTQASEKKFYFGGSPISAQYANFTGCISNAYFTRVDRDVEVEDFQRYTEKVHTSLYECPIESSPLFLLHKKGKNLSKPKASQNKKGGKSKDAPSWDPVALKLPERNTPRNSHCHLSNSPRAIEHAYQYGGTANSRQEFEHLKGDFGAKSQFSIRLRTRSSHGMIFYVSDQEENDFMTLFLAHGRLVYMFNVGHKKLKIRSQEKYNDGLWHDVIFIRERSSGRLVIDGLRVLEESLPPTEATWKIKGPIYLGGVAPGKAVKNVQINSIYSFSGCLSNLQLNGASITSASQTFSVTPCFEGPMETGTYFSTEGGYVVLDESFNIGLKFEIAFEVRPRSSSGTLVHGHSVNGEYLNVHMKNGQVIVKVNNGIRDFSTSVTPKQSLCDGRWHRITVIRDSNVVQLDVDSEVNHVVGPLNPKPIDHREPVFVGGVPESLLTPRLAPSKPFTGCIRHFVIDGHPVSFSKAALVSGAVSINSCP
The assay is described as above. On the procedure:
as §2, §1

For assay [4], the target named is T4, LAMA4 / purified His-LAMA4 (species not stated).
T4 chain: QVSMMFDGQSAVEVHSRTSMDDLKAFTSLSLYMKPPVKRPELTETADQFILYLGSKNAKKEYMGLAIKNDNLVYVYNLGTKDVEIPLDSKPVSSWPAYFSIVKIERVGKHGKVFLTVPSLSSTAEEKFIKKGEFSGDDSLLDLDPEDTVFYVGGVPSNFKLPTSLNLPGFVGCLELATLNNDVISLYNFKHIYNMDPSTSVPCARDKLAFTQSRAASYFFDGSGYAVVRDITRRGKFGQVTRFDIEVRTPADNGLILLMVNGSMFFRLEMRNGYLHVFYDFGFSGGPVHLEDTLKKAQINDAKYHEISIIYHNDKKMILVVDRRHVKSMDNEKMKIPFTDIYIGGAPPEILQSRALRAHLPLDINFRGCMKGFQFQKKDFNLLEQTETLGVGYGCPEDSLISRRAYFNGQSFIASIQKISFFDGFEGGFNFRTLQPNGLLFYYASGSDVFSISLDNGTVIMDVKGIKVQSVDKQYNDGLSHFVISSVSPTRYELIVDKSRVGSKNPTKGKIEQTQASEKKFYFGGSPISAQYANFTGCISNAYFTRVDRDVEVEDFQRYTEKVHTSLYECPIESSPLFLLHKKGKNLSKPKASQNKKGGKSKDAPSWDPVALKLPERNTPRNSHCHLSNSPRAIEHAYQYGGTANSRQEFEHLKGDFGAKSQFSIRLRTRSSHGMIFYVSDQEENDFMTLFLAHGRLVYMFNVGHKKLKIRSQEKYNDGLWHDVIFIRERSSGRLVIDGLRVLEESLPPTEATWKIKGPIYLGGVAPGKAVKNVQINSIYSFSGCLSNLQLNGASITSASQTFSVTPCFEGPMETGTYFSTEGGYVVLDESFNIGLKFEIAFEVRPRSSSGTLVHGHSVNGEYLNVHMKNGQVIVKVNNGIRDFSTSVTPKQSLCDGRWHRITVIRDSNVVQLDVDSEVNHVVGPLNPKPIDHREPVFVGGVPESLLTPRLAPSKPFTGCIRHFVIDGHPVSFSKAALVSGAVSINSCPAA
As to the kind of experiment: SPR (Biacore), full kinetic analysis; species of LAMA4 not stated. A general note: Surface plasmon resonance follows binding to a sensor surface in real time, without labels.

Changes are numbered by the printed parent chain.

B1: humanized 15F7 variant H1L1 (Hu15F7VHv1/Hu15F7VLv1) (antibody, V domains shown)
VH: EVQLQQSGAEVKKPGSSVKLSCKASGYTFTSYGLSWVKQRAGQGLEWIGEIFPRSGNTYYNEKFKGKATLTADKSSSTAYMELRSLRSEDTAVYFCARGVRSPGAMDYWGQGTLVTVSS
VL: DIQMTQSSSSLSASVGDRVTITCKASEDIYNRLAWYQQKPGNAPRLLISGATSLETGVPSRFSGSGSGKDYTLTISSLQTEDFATYYCQQYWSIPYTFGGGTKLEIKR
notes: They are human, since it was captured by a goat anti-human Fc sensor; also called VHv1/VLv1
As usually defined, the Kd is a measure of binding affinity in units of concentration. A lower Kd goes with higher affinity. The term koff denotes the rate constant with which the complex falls apart. A high value points to fast dissociation. The term kon denotes the second-order rate constant of association. A lower kon goes with slower complex formation. Take B1: the binding result in assay [1] is “binds”. In addition, in assay [2], the binding result is given as “no binding”. The binding result in assay [3] is “binds”. In assay [4], this molecule displayed a Kd of 0.12 nM, an off-rate (koff) of 0.000183 s⁻¹ and a kon of 1.5e+06 M⁻¹ s⁻¹.

B2: chimeric 15F7 (antibody, V domains shown)
VH: B1 VH with E1Q, A9T, V11L, K12A, K13R, S16A, S17A, R87T, T91S, L114S
VL: B1 VL with L11F, A13V, V15L, T74S, S76T, F83V, K103N
Consider B2, for which the binding result in assay [2] is “no binding”. In assay [4], binding was characterised by a dissociation constant (Kd) of 0.1 nM, the koff was found to be 0.000151 s⁻¹ and the kon worked out at 1.5e+06 M⁻¹ s⁻¹.

B3: humanized 15F7 variant H2L2 (Hu15F7VHv2/Hu15F7VLv2) (antibody, V domains shown)
VH: B1 VH with A41P, L70I
VL: B1 VL with S8P, R45K, Y71F, T80P, L104V
notes: also called VHv2/VLv2
Take B3: the binding result is given as “binds” in assay [1], “no binding” in assay [2] and “binds” in assay [3].

B4: humanized 15F7 variant H2L1 (Hu15F7VHv2/Hu15F7VLv1) (antibody, V domains shown)
VH: B1 VH with A41P, L70I
VL: B1 VL
notes: also called VHv2/VLv1
Take B4: the values for the binding result in assay [1], in assay [2] and in assay [3] were “binds”, “no binding” and “binds”, respectively. Moreover, binding in assay [4] was put at a Kd of 0.13 nM. In addition, the koff in assay [4] was 0.000205 s⁻¹. In assay [4], this molecule had a kon of 1.56e+06 M⁻¹ s⁻¹.

B5: humanized 15F7 variant H1L2 (Hu15F7VHv1/Hu15F7VLv2) (antibody, V domains shown)
VH: B1 VH
VL: B1 VL with S8P, R45K, Y71F, T80P, L104V
notes: also called VHv1/VLv2
Turning to B5, the binding result in assay [1] is on record as “binds”; in assay [2], “no binding”; in assay [3], “binds”.

Source of the values: patent publication US20150259408A1 (PROTHENA BIOSCIENCES, published 2015).
